Measured values: paper PMC9722916

Molecular target: T1, rat TRPV2, C-terminally fused to GFP and a His8-tag (rat), Q9WUD2
T1 chain: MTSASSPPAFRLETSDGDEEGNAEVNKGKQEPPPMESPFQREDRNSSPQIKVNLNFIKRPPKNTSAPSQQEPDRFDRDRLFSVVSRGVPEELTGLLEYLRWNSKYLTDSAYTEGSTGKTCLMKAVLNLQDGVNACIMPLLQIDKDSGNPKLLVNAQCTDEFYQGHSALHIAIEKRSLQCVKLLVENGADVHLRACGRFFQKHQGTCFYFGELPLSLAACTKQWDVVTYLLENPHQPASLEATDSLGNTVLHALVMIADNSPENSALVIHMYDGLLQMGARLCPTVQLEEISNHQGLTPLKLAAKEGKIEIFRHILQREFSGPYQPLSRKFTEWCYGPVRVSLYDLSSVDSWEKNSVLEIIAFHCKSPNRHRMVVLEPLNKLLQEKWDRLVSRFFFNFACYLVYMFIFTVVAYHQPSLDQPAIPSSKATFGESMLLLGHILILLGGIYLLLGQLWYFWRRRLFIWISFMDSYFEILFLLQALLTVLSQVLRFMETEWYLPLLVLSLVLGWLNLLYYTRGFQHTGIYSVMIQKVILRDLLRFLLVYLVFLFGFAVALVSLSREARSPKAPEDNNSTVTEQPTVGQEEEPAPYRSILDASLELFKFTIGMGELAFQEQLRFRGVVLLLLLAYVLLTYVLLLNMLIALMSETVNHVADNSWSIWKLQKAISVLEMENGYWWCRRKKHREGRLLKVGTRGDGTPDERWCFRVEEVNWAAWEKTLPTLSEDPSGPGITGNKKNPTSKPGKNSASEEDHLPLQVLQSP
Assay: cryo-EM structure; purified rat TRPV2 in GDN (20 mM Tris 8.0, 150 mM NaCl, 0.4 mg/ml GDN), incubated with C16 (50 uM) and probenecid (2 mM), alone or in combination, at room temperature for 15 min; C4 symmetry (C16 and probenecid structures), C1 symmetry (C16+probenecid structures)
Settings: remark: other sources report otherwise

stoichiometry N: 4
B1: rat TRPV2, C-terminally fused to GFP and a His8-tag, Q9WUD2 1-761 (natural protein)
chain: MTSASSPPAFRLETSDGDEEGNAEVNKGKQEPPPMESPFQREDRNSSPQIKVNLNFIKRPPKNTSAPSQQEPDRFDRDRLFSVVSRGVPEELTGLLEYLRWNSKYLTDSAYTEGSTGKTCLMKAVLNLQDGVNACIMPLLQIDKDSGNPKLLVNAQCTDEFYQGHSALHIAIEKRSLQCVKLLVENGADVHLRACGRFFQKHQGTCFYFGELPLSLAACTKQWDVVTYLLENPHQPASLEATDSLGNTVLHALVMIADNSPENSALVIHMYDGLLQMGARLCPTVQLEEISNHQGLTPLKLAAKEGKIEIFRHILQREFSGPYQPLSRKFTEWCYGPVRVSLYDLSSVDSWEKNSVLEIIAFHCKSPNRHRMVVLEPLNKLLQEKWDRLVSRFFFNFACYLVYMFIFTVVAYHQPSLDQPAIPSSKATFGESMLLLGHILILLGGIYLLLGQLWYFWRRRLFIWISFMDSYFEILFLLQALLTVLSQVLRFMETEWYLPLLVLSLVLGWLNLLYYTRGFQHTGIYSVMIQKVILRDLLRFLLVYLVFLFGFAVALVSLSREARSPKAPEDNNSTVTEQPTVGQEEEPAPYRSILDASLELFKFTIGMGELAFQEQLRFRGVVLLLLLAYVLLTYVLLLNMLIALMSETVNHVADNSWSIWKLQKAISVLEMENGYWWCRRKKHREGRLLKVGTRGDGTPDERWCFRVEEVNWAAWEKTLPTLSEDPSGPGITGNKKNPTSKPGKNSASEEDHLPLQVLQSP
